For 2 substances, ratio bound/input results are on record in PMC3457934.

The test addresses in vitro assembled HIV-1 CA-NC complexes (HIV-1). Description: co-sedimentation; 5 µl in vitro assembled CA-NC particles incubated with 200 µl 293T cell lysate (capsid-binding buffer plus 1X PBS) at room temperature for 1 hour; spun through a 70% sucrose cushion at 100,000×g for 1 hour at 4°C; pellet (BOUND) and INPUT analysed by Western blotting (anti-GFP, anti-HA, anti-p24); fluorescent quantification of three independent experiments. (In western blotting, separated proteins are transferred to a membrane and probed.)

In the case of “GFP-RanBP2 (full-length Nup358/RanBP2 fused to GFP) (from UniProt P49792 1-3224) (natural protein)”, the ratio bound/input was determined as 1.
“GFP-RanBP2-ΔCyp deletion mutant (from UniProt P49792 1-2786) (domain or fragment)”: the ratio bound/input came out at 0.39.
